Experimental data taken from CN111732654A (WUHAN INST OF BIOLOGICAL PRODUCTS CO LTD, dated 2020).

Assays:
[1] = target: SARS-CoV-2刺突蛋白S1的RBD结构域重组蛋白 (Sino公司，货号40592-V05H) (SARS-CoV-2 (2019-nCoV), UniProt P0DTC2 319-541)
[2] = target: SARS-CoV-2刺突S1-His重组蛋白 (Sino公司，货号:40591-V08H) (SARS-CoV-2 (2019-nCoV), UniProt P0DTC2 16-685)

B1: 单克隆抗体1E10 (人源抗SARS-CoV-2抗体1E10) (antibody, V domains shown)
VH: EVQLVQSGAEVKKPGSSVKVSCKASGGTFSSYAISWVRQAPGQGLEWMGRIIPILGIANYAQKFQGRVTITADKSTSTAYMELSSLRSEDTAVYYCAREVSDFDWLYRSHYGMDVWGQGTTVTVSS
VL: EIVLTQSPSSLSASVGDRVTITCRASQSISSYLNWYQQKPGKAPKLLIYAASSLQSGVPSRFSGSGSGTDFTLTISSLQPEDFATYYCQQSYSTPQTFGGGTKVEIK
EC50 [1]: 0.044 nM
EC50 [2]: 0.029 nM
